Assay results as given in article PMC11784222.

Assays:
[1] = molecular target: GP5 in the pVC vector (pVC-GP5) (HP-PRRSV-2 strain HuN4); assay: split reporter (BiFC, NanoBiT); BiFC in HEK293T cotransfected with pVN and pVC plasmids, 24 hpt; YFP signal by confocal microscopy and ratio of YFP-positive cells by flow cytometry
[2] = molecular target: N protein in the pVC vector (pVC-N) (HP-PRRSV-2 strain HuN4); assay: as above

| Substance | percent of fluorescence-positive cells (BiFC) [1] [%] | percent of fluorescence-positive cells (BiFC) [2] [%] |
| --- | --- | --- |
| N protein in the pVN vector (pVN-N) (natural protein) | 3.87 |  |
| nsp2 in the pVN vector (pVN-nsp2) (natural protein) |  | 32.1 |
